Assay results published in paper PMC8746622, “Purification, Characterization, and Structural Studies of a Sulfatase from Pedobacter yulinensis” (Molecules, 2021).

B1: PyuS (Pedobacter yulinensis) (protein)
chain: QGSRKPNIIFIMADDLGWGELGSYGNTFNETPNLDRLSAQGMRFTQAYAAAPVCSPTRASIMTGQYPARVGITDFLPEDEKTDRWLDPTKYVTLNEALSASGYHTGIVGKWHLDTDFKLNKGGPKAHGFNEVIGTESEYIADGDYFFPYSKIASFDKGTANEYLTDRQCAEANAFITRNREKPFFLYLSLYSVHTRLEAPVQLVEKYKQKFDQKYGTGKAEQFFGANNVRHESAQRDNPWLAAMLESIDTGVGGIMKTLRETGLAENTIIVFFSDNGGAGKAGNNAHLRAGKTWLYEGGIREPLIVSWPGKIKGNTVNDNPVTSLDFYPTFLAAAGGKPTGGRLDGHNLMPLLRGGRASGRPLFWHYPSETGKWVNRMSSAVREGNYKLLEFYNNPRLELYDLQNDPSESHNLATDRPAETARLKKLLEDWKKEVNAEAPHLARKEKKKP
notes: signal peptide (native residues 2-24) removed; C-terminal GSHHHHHH tag kept; expressed in E. coli with M. tuberculosis FGE (active-site Cys converted to formylglycine, FGly55); 459 residues, 51,320 Da; SEC monomer

How the values were obtained:
[1] = molecular target: Pedobacter yulinensis sulfatase (PyuS), recombinant, without the putative N-terminal signal peptide, C-terminal His6-tag (Pedobacter yulinensis); experiment: SEC; HiLoad 16/600 Superdex 200 pg, 10 mM Tris, 150 mM sodium chloride, pH 8.0, 1.2 mL/min, 4 °C; molecular weights of the two peaks from SEC MW standards; monomer and dimer
[2] = substrate: Cc1cc(=O)oc2cc(OS(=O)(=O)O)ccc12; experiment: purified protein; format: biochemical, Pedobacter yulinensis; conditions: 25 mM Bis-Tris pH 6.5, 1.0 mM CaCl2, room temperature, SEC monomer

Row | Molecule | percent of soluble protein as homodimer [1] [%] | stoichiometry N [1] | Km [2] [mM] | kcat [2] [min⁻¹]
1 | Pedobacter yulinensis sulfatase (PyuS), recombinant, without the putative N-terminal signal peptide, C-terminal His6-tag (enzyme) | 10 | 2 |  | 
2 | B1 |  |  | 1.89 | 0.59
